Measurements taken from article PMC8048981 (2021).
Bridge positions count the residues as written; N and C are the ends.

Molecular target: MDM2 (Homo sapiens, UniProt Q00987)
Assay: fluorescence polarization

Sequence of MDM2 (Q00987 whole entry): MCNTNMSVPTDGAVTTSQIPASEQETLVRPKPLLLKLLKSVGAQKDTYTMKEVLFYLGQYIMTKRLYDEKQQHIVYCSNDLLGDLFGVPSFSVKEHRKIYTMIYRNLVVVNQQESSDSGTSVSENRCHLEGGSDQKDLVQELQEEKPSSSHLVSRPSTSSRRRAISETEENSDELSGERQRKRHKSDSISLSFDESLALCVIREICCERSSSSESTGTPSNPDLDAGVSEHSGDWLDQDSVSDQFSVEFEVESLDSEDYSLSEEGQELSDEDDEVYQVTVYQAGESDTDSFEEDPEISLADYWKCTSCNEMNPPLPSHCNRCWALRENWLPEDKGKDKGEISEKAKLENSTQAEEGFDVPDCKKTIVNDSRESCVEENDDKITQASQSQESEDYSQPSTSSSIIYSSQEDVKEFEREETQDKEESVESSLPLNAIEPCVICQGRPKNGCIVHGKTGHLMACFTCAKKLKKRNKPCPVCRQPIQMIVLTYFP

Binder | Kd
{5(6)‑carboxyfluorescein}-QSQQTFCNLWRLLKQN-NH2 [linear p53-derived peptide 28'] | 346 nM
{5(6)‑carboxyfluorescein}-QSQQTFCNLWRLLKQN-NH2 (linker 7-14 via para‑phenyl thioalkyne amide (reagent 9a)) [stapled p53-derived peptide 29a'] | 29 nM
